Biological target: MRG2 chromodomain (residues 41-123) (Arabidopsis thaliana) (UniProt Q4V3E2)
Experiment: ITC; 25 C, MicroCal iTC200; 50 mM Tris pH 8.0, 100 mM NaCl; 0.2-0.4 mM protein in the cell, 2-4 mM peptide injected in 2 ul aliquots (20 injections); one-site model

Sequence of MRG2 chromodomain (residues 41-123) (Arabidopsis thaliana) (Q4V3E2 41-123): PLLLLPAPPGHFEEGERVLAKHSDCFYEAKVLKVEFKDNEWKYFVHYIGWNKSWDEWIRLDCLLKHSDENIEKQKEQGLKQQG

Kd [µM] | Substance
690 | H3K36me3 peptide (residues 31-41)
800 | H3K4me3 peptide (residues 1-9)
